Data on 4 molecules can be found in patent US20190100600A1 (BIONOMICS, published 2019).

The target in test [1] is T1, purified recombinant LGR5 ectodomain-IgG-Fc fusion (human, UniProt O75473 22-561).
T1 construct: also called human LGR5-Fc; hLGR5-Fc; not shown: IgG Fc
T1 sequence: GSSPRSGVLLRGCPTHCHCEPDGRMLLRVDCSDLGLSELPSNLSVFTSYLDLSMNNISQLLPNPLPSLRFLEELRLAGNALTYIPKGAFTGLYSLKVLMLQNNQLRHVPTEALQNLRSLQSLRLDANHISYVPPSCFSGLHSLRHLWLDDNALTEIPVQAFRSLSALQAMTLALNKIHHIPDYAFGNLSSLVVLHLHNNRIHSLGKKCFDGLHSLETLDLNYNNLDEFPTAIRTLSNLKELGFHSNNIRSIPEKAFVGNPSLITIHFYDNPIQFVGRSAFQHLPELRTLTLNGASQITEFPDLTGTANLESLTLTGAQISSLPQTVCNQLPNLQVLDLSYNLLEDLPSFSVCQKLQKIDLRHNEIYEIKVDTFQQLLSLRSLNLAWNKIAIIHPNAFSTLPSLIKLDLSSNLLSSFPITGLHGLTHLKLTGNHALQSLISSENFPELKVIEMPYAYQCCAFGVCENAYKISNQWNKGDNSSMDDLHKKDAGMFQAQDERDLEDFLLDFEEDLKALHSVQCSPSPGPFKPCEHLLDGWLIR
Description: ELISA of the ternary complex: R-spondin 1 preincubated with LGR5-Fc, co-receptor-Fc coated.

Test [2] concerns the target T1, purified recombinant LGR5 …. Description: ELISA of the ternary complex: R-spondin 4 preincubated with LGR5-Fc, co-receptor-Fc coated. On the technique in general: An ELISA detects its analyte on a solid surface through an enzyme-linked reagent.
Description: (§1) RNF43-Fc, ZNRF3-Fc, and LRP6-Fc were coated on a 96-well high binding plate at 4 μg/mL in 1×PBS. The plate was incubated overnight at 4° C. and blocked with PBS+1% BSA. […] Triplicate wells were used for each condition was tested in triplicate. […] 1:10,000 dilution of anti-mouse IgG HRP (JIR) was used for detection. […] Data analysis was done using GraphPad Prism 6 program.
Test [3] has the same target. Description: ELISA of the ternary complex: R-spondin 3 preincubated with LGR5-Fc, co-receptor-Fc coated.
Description: as §1
Test [4] shares this target. As to the kind of experiment: ELISA of the ternary complex: R-spondin 2 preincubated with LGR5-Fc, co-receptor-Fc coated.
Description: as §1

B1: human R-spondin 1 (ligand, UniProt Q2MKA7 21-263, looked up)
chain: SRGIKGKRQRRISAEGSQACAKGCELCSEVNGCLKCSPKLFILLERNDIRQVGVCLPSCPPGYFDARNPDMNKCIKCKIEHCEACFSHNFCTKCKEGLYLHKGRCYPACPEGSSAANGTMECSSPAQCEMSEWSPWGPCSKKQQLCGFRRGSEERTRRVLHAPVGDHAACSDTKETRRCTVRRVPCPEGQKRRKGGQGRRENANRNLARKESKEAGAGSRRRKGQQQQQQQGTVGPLTSAGPA
notes: mature; Bought; printed as 'full length constructs expressed in mammalian cells'; also called RSPO1; R-spo1
B1: in test [1], the binding result is listed as “binds”.

B2: human R-spondin 4 (ligand, UniProt Q2I0M5 20-234, looked up)
chain: LNRRKKQVGTGLGGNCTGCIICSEENGCSTCQQRLFLFIRREGIRQYGKCLHDCPPGYFGIRGQEVNRCKKCGATCESCFSQDFCIRCKRQFYLYKGKCLPTCPPGTLAHQNTRECQGECELGPWGGWSPCTHNGKTCGSAWGLESRVREAGRAGHEEAATCQVLSESRKCPIQRPCPGERSPGQKKGRKDRRPRKDRKLDRRLDVRPRQPGLQP
notes: mature; Bought; printed as 'full length constructs expressed in mammalian cells'; also called RSPO4; R-spo4
As to B2, the binding result in test [2] is reported as “binds”.

B3: human R-spondin 3 (ligand, UniProt Q9BXY4 22-272, looked up)
chain: QNASRGRRQRRMHPNVSQGCQGGCATCSDYNGCLSCKPRLFFALERIGMKQIGVCLSSCPSGYYGTRYPDINKCTKCKADCDTCFNKNFCTKCKSGFYLHLGKCLDNCPEGLEANNHTMECVSIVHCEVSEWNPWSPCTKKGKTCGFKRGTETRVREIIQHPSAKGNLCPPTNETRKCTVQRKKCQKGERGKKGRERKRKKPNKGESKEAIPDSKSLESSKEIPEQRENKQQQKKRKVQDKQKSVSVSTVH
notes: mature; Bought; printed as 'full length constructs expressed in mammalian cells'; also called RSPO3; R-spo3
On to B3, for which the binding result in test [3] is reported as “binds”.

B4: human R-spondin 2 (ligand, UniProt Q6UXX9 22-243, looked up)
chain: QGNRWRRSKRASYVSNPICKGCLSCSKDNGCSRCQQKLFFFLRREGMRQYGECLHSCPSGYYGHRAPDMNRCARCRIENCDSCFSKDFCTKCKVGFYLHRGRCFDECPDGFAPLEETMECVEGCEVGHWSEWGTCSRNNRTCGFKWGLETRTRQIVKKPVKDTILCPTIAESRRCKMTMRHCPGGKRTPKAKEKRNKKKKRKLIERAQEQHSVFLATDRANQ
notes: mature; Bought; printed as 'full length constructs expressed in mammalian cells'; also called RSPO2; R-spo2
With B4, the binding result in test [4] is given as “binds”.
